Results from US20050066376.

System: T1, Minos transposase (fly cDNA ILMi) (Drosophila hydei)
T1 sequence: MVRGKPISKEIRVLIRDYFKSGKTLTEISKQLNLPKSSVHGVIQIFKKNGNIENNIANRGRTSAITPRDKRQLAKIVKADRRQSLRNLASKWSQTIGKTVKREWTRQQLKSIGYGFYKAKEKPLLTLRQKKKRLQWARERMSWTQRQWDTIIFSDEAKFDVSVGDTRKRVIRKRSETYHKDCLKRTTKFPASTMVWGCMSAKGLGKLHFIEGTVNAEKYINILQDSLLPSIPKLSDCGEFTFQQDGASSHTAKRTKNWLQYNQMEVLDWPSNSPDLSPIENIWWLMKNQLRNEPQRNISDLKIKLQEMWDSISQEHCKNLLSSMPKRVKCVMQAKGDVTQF
Test: cell_activity
Conditions: germ-line transposition frequency in mouse, 12 events in 146 transposon-positive progeny; TA target site duplication

Minos transposon MiCMVGFP (Minos inverted repeats flanking CMV-GFP)
activity: 8.2%
